This assay addresses T1, Drosophila Slit D2 (second leucine-rich repeat domain) (Drosophila, UniProt P24014 310-526, two N-linked glycans).
T1 sequence: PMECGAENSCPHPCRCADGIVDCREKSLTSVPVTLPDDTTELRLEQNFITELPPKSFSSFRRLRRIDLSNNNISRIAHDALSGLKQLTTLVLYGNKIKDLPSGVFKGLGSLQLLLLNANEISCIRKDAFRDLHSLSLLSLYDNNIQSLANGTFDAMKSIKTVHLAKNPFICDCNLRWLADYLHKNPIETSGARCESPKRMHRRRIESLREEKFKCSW
The assay can be described thus: SEC.

For orientation: stoichiometry N means a count of units in the complex or per binding partner.

B1: Drosophila Robo IG1–2 (domain or fragment)
chain: not shown
As for B1, the “stoichiometry N” value came to 1.

(Values after PMC3680705 (The Journal of biological chemistry, 2006).)
